Assay results from US20220251171A1, “APOLIPOPROTEIN E FRAGMENTS” (EISAI R&D MANAGEMENT CO., LTD., priority 2019, published 2022).

B1: 200-299: C-terminal fragment consisting of amino acids 200-299 of human ApoE (SEQ ID NO: 1) (protein)
chain: GQPLQERAQAWGERLRARMEEMGSRTRDRLDEVKEQVAEVRAKLEEQAQQIRLQAEAFQARLKSWFEPLVEDMQRQWAGLVEKVQAAVGTSAAPVPSDNH
B2: 198-299: C-terminal fragment consisting of amino acids 198-299 of human ApoE (SEQ ID NO: 3) (protein)
chain: LAGQPLQERAQAWGERLRARMEEMGSRTRDRLDEVKEQVAEVRAKLEEQAQQIRLQAEAFQARLKSWFEPLVEDMQRQWAGLVEKVQAAVGTSAAPVPSDNH
B3: 199-299: C-terminal fragment consisting of amino acids 199-299 of human ApoE (SEQ ID NO: 2) (protein)
chain: AGQPLQERAQAWGERLRARMEEMGSRTRDRLDEVKEQVAEVRAKLEEQAQQIRLQAEAFQARLKSWFEPLVEDMQRQWAGLVEKVQAAVGTSAAPVPSDNH

Key:
[1] = test system: neurotoxic 12 kDa ApoE fragment; assay: Western blot analysis of 12 kDa ApoE fragment production in rat hippocampal neurons expressing full-length human ApoE4; assay type: cell-based; conditions: rat hippocampal neurons infected with AAV-DJ full-length human ApoE4; treated at 11 DIV, collected at 14 DIV; concentration dependent; FIG. 14A
Protocol: (§1) Cell culture: The dissected hippocampi from fetuses obtained on embryonic day (E) 18 from timed pregnant Wistar rats (Charles River Laboratories) were digested using trypsinization and mechanical dissociation. The dissociated neurons were seeded at 1.0×10^5 cells/well in 24-well plate (Falcon). Infection of AAV-DJ with full-length human ApoE4 was performed at 7 days in vitro (DIV). 4-{4-[2-(3-methyl-4-oxo-3,4-dihydro-phthalazin-1-yl)-acetylamido]-benzyl}-piperazine-1-carboxylic acid tert-butyl ester (hereinafter also referred to as PH-002) (Merck) was treated at 4 days after infection (11 DIV). Sample collection for western blot and cytotoxicity analysis was performed at 7 days after infection (14 DIV).
Western blot analysis: Cells were lysed by RIPA buffer (50 mM Tris-HCl pH 7.6, 5 mM EDTA, 1 mM EGTA, 1% NP40, 0.25% sodium deoxycholate, 0.1 M NaCl, 0.5 mM PMSF) containing complete (EDTA-free) protease inhibitor cocktail (Roche) and PhosSTOP protein phosphatase inhibitor (Sigma), and sonicated. Sample Buffer Solution with Reducing Reagent (6×) (Nacalai Tesque) was added before SDS-PAGE. For SDS-PAGE, XV PANTERA MP Gel (DRC) 15% was used. For transfer, Trans-Blot Turbo (BIO-RAD) was used. For immunoblotting, iBind Western Systems (ThermoFisher Scientific) was used together with anti-ApoE PA5-27088 antibody (ThermoFisher Scientific). For detection, Fusion FX7 (Vilber Lourmat) was used.

[2] = test system: rat hippocampal neurons; assay: CytoTox-Glo Cytotoxicity Assay of treated rat hippocampal neurons; assay type: cell-based; conditions: conditioned medium of treated rat hippocampal neurons, 14 DIV; FIG. 14B
Protocol: as §1
Cytotoxicity analysis: Cytotoxicity of treated compound was evaluated by CytoTox-GIo™ Cytotoxicity Assay (Promega). In brief, 50 uL of conditioned medium and 50 uL of prepared CytoTox-GIo™ Cytotoxicity Assay reagent were mixed in 96-well white-walled plate (Sumitomo Bakelite). After incubation at room temperature for 15 min, luminescence was measured by SpectraMax iD5 (Molecular Devices).

[3] = literature, Chang et al.; cited from earlier work
[4] = test system: rat primary hippocampal neurons; assay: Mitochondrial respiration measurement (spare respiratory capacity) in AAV6-infected rat hippocampal neurons; assay type: cell-based; conditions: 7 days after AAV6 infection (14 DIV), FIG. 13B
Protocol: For assays using rat hippocampal neurons, the dissected hippocampi from fetuses obtained on embryonic day (E) 18 from timed pregnant Wistar rats (Charles River Laboratories) were digested using trypsinization and mechanical dissociation. The dissociated neurons were seeded at 1.5×10^4 cells/well in Seahorse XF96 cell culture microplate (Agilent Technologies) for mitochondrial respiration measurement or 1.0×10^5 cells/well in 24-well plate (Falcon) for Western blot analysis. Infection of AAV6 with full-length human ApoE4 or identified ApoE fragments (198-299, 199-299, 200-299) was performed at 7 days in vitro (DIV). Measurement of mitochondrial respiration or sample collection for Western blot analysis was performed at 7 days after infection (14 DIV).
(§2) Mitochondrial respiration measurement: Real-time measurement of oxygen consumption rates (OCR) was performed using an Extracellular Flux Analyzer XFe96 (Agilent Technologies). Before measurement, the culture medium was replaced by 37° C. pre-warmed XF Base Medium (Agilent Technologies) containing 10 mM sodium pyruvate (Sigma), 10 mM D-glucose (Sigma), 2 mM glutamine (Sigma). The pH of the measurement medium was adjusted to 7.4. The culture plates were incubated at 37° C. for 60 min prior to the assay. For analysis of mitochondrial function, XF Cell Mito Stress Test Kit (Agilent Technologies) was used. Following measurement of basal OCR, mitochondrial complex inhibitors were injected sequentially into each cell. The inhibitors were used at the following concentrations: oligomycin 1 μM; carbonyl cyanide 4-(trifluoromethoxy)phenylhydrazone (FCCP) 0.25 μM for Neuro2A cells, 2 μM for rat hippocampal neurons; rotenone/antimycin A 0.5 μM. OCR values were automatically calculated, recorded and plotted by the XFe96 software. Spare respiratory capacity was measured as (FCCP respiration—basal respiration).

[5] = test system: Aβ; conditions: literature, Pillot et al.; artificially-generated fragment; cited from earlier work
[6] = test system: Neuro2A cells; assay: Mitochondrial respiration measurement (spare respiratory capacity) in vector-transfected Neuro2A cells; assay type: cell-based; conditions: Neuro2A cells expressing the fragment; FCCP respiration minus basal respiration; FIG. 13A
Protocol: Cell culture: Neuro2A cells (ATCC) were seeded at 5.0×10^4 cells/well in a 24 well plate (Falcon) and cultured in D-MEM High Glucose (WAKO) containing 10% fetal bovine serum. Transfection of pAAV-CMV vectors encoding human ApoE4 (full-length) or the identified ApoE fragments (198-299, 199-299, 200-299) was done using Lipofectamine LTX and Plus Reagent (Invitrogen) on 1 day after seeding. 2 days later, vector-transfected cells were collected for Western blot analysis or seeded again at 2.0×10^4 cells/well in a Seahorse XF96 cell culture microplate (Agilent Technologies) 4 hours before mitochondrial respiration measurement.
as §2

Molecule	spare respiratory capacity [4]	spare respiratory capacity [6]	further results
Cn1nc(CC(=O)Nc2ccc(CN3CCN(C(=O)OC(C)(C)C)CC3)cc2)c2ccccc2c1=O [PH-002, 4-{4-[2-(3-methyl-4-oxo-3,4-dihydro-phthalazin-1-yl)-acetylamido]-benzyl}-piperazine-1-carboxylic acid tert-butyl ester]	–	–	amount of neurotoxic 12 kDa ApoE fragment [1]: reduction in the amount of neurotoxic 12 kDa ApoE fragment; cytotoxicity [2]: no cytotoxicity
ApoE4(1-299): full-length ApoE4	–	–	mitochondrial dysfunction and neurotoxicity [3]: did not bring about these effects
B1	reduction in spare respiratory capacity	reduction in spare respiratory capacity	inhibition of the fusogenic properties of Aβ [5]: able to inhibit the fusogenic properties of Aβ
B2	reduction in spare respiratory capacity	reduction in spare respiratory capacity	–
B3	reduction in spare respiratory capacity	reduction in spare respiratory capacity	–
